Laboratory results: publication PMC11480844

B1: H2-Kb / B3 (parent)
chain 1: GQQVKQSSPSLTVQEGGISILNCDYENDMFDYFAWYKKYPDNSPTLLISVRSNVDKREDGRLTVFLNKSGKHFSLHITASQPEDTAVYLCAAGNTGYQNFYFGKGTSLTVIP
chain 2: DSGVVQSPRHIIKEKGGRSVLTCIPISGHSNVVWYQQTLGKELKFLIQHYEKVERDKGFLPSRFSVQQFDDYHSEMNMSALELEDSAMYFCASSSLQGARNQAPLFGEGTRLSVL
chain 3: not shown
chain 4: IQKTPQIQVYSRHPPENGKPNILNCYVTQFHPPHIEIQMLKNGKKIPKVEMSDMSFSKDWSFYILAHTEFTPTETDTYACRVKHDSMAEPKTVYWDRDM
chain 5: SIINFEKL
B2: H2-Kb / E9 (parent)
chain 1: QQKVQQSPESLTVSEGAMASLNCTFSDRSSDNFRWYRQHSGKGLEVLVSIFSDGEKEEGSFTAHLNRASLHVFLHIREPQPSDSALYLCAVSRSSGSWQLIFGSGTQLTVMP
chain 2: NSGVVQSPRYIIKGKGERSILKCIPISGHLSVAWYQQTQGQELKFFIQHYDKMERDKGNLPSRFSVQQFDDYHSEMNMSALELEDSAVYFCASSRDSNNQAPLFGEGTRLSVL
chain 3: not shown
chain 4: B1 chain 4
chain 5: SIINFEKL
B3: H2-Kb / H5 (parent)
chain 1: GEQVEQRPPHLSVREGDSAVIICTYTDPNSYYFFWYKQEPGAGLQLLMKVFSSTEINEGQGFTVLLNKKDKQLSLNLTAAHPGDSAVYFCAVSNYGSSGNKLIFGIGTLLSVKP
chain 2: EAAVTQSPRNKVAVTGGKVTLSCNQTNNHNNMYWYRQDTGHGLRLIHYSYGAGSTEKGDIPDGYKASRPSQENFSLILELATPSQTSVYFCASGDRERDTQYFGPGTRLLVL
chain 3: not shown
chain 4: B1 chain 4
chain 5: SIINFEKL
B4: H2-Kb / B13 (parent)
chain 1: AQKVTQTQTSISVMEKTTVTMDCVYETQDSSYFLFWYKQTASGEIVFLIRQDSYKKENATVGHYSLNFQKPKSSIGLIITATQIEDSAVYFCAMREGTGGYKVVFGSGTRLLVSP
chain 2: EAAVTQSPRNKVTVTGGNVTLSCRQTNSHNYMYWYRQDTGHGLRLIHYSYGAGNLQIGDVPDGYKATRTTQEDFFLLLELASPSQTSLYFCASSDGTGHEQYFGPGTRLTVL
chain 3: not shown
chain 4: B1 chain 4
chain 5: SIINFEKL

Variants of: B1
Experiment: % of reporter cells activated (NFAT-GFP), raw
Settings: with B3; scale: % of reporter cells activated
Further: test concentration or dose not given here.

Ratio to parent, by site and new letter:
chain 5 S1: D 0.229 | E 0.216 | F 0.18 | G 0.192 | H 0.259 | I 0.207 | K 0.356 | L 0.118 | M 0.195 | N 0.0477 | P 0.303 | Q 0.266 | R 0.101 | T 0.194 | V 0.34 | W 0.138 | Y 0.576

Variants of: B2
Experiment: % of reporter cells activated (NFAT-GFP), raw
Settings: with E9; scale: % of reporter cells activated

Ratio to parent: each site, then its substitutions
chain 5 E6: A 2.25 | C 0.862 | D 1.68 | F 1.68 | G 1.74 | H 1.47 | I 2.63 | K 1.98 | L 1.35 | M 1.86 | N 1.47 | P 2.1 | Q 1.47 | R 2.34 | S 2.46 | T 2.1 | V 3.26 | W 2.07 | Y 2.84
chain 5 F5: A 1.68 | C 1.95 | D 3.05 | E 2.43 | G 1.74 | H 1.89 | I 1.02 | K 2.54 | L 1.98 | M 1.74 | N 2.01 | P 2.51 | Q 1.32 | R 0.671 | S 1.83 | T 1.45 | V 1.89 | W 1.14 | Y 2.37
chain 5 I2: A 2.22 | C 2.31 | D 2.31 | E 2.07 | F 1.02 | G 1.32 | H 1.71 | K 1.2 | L 1.5 | M 1.59 | N 1.77 | P 1.77 | Q 1.77 | R 1.06 | S 1.46 | T 2.01 | V 2.13 | W 1.86 | Y 1.53
chain 5 I3: A 1.71 | C 1.65 | D 1.41 | E 1.86 | F 1.26 | G 1.62 | H 1.53 | K 2.31 | L 2.07 | M 1.17 | N 0.778 | P 1.68 | Q 1.83 | R 1.89 | S 2.13 | T 1.68 | V 1.23 | W 1.74 | Y 2.43
chain 5 K7: A 0.686 | C 3.02 | D 1.53 | E 2.1 | F 0.958 | G 1.92 | H 2.43 | I 2.54 | L 2.01 | M 1.02 | N 1.95 | P 2.07 | Q 2.28 | R 0.237 | S 1.41 | T 2.01 | V 1.71 | W 1.38 | Y 1.26
chain 5 L8: A 0.868 | C 2.78 | D 0.605 | E 1.26 | F 1.77 | G 1.25 | H 1.92 | I 0.988 | K 1.14 | M 0.988 | N 0.838 | P 1.35 | Q 0.898 | R 1.53 | S 0.886 | T 0.623 | V 0.302 | W 0.778 | Y 1.2
chain 5 N4: A 2.22 | C 2.34 | D 1.11 | E 1.68 | F 1.38 | G 1.35 | H 2.63 | I 1.92 | K 2.4 | L 2.31 | M 1.71 | P 2.07 | Q 1.38 | R 1.59 | S 1.89 | T 1.47 | V 2.04 | W 1.77 | Y 1.15
chain 5 S1: A 3.05 | C 3.08 | D 1.29 | E 2.1 | F 2.34 | G 2.1 | H 2.01 | I 2.49 | K 1.23 | L 2.01 | M 1.5 | N 1.32 | P 1.23 | Q 1.16 | R 0.719 | T 1.35 | V 1.86 | W 1.2 | Y 1.2

Variants of: B3
Experiment: % of reporter cells activated (NFAT-GFP), raw
Settings: with H5; scale: % of reporter cells activated

Ratio to parent of substitutions, site by site:
chain 5 I3: T 0.352 | H 0.372 | P 0.49 | Y 0.321 | S 0.276 | N 0.367 | L 0.74 | Q 0.337 | E 0.357 | R 0.403 | F 0.276 | W 0.286 | M 0.327 | G 0.347 | A 0.306 | V 0.985 | K 0.423 | C 0.5 | D 0.265
chain 5 F5: T 0.367 | G 0.316 | P 0.459 | C 0.816 | A 0.923 | D 0.439 | M 1.13 | E 0.352 | H 0.719 | N 0.48 | R 0.311 | L 0.663 | Y 0.765 | Q 0.638 | S 0.531 | I 2.01 | V 0.617 | W 0.515 | K 0.362
chain 5 K7: L 0.638 | Y 0.383 | T 1.8 | I 1.12 | P 0.551 | A 0.648 | M 0.362 | R 1.01 | V 0.75 | H 0.806 | N 0.893 | W 0.352 | G 0.811 | E 4.34 | C 0.77 | Q 0.592 | D 0.597 | F 0.306 | S 0.76
chain 5 S1: E 0.281 | R 0.852 | L 0.398 | C 0.316 | N 0.352 | G 0.25 | I 0.454 | F 0.638 | Y 0.27 | A 0.474 | D 0.281 | V 0.388 | K 0.602 | P 0.383 | M 2.39 | W 0.332 | H 0.474 | T 0.587 | Q 0.469
chain 5 E6: Y 0.332 | M 0.311 | T 0.459 | D 0.235 | L 0.265 | S 0.444 | A 0.454 | C 0.342 | I 0.408 | K 0.332 | G 0.306 | W 0.25 | Q 0.357 | N 0.301 | P 0.301 | R 0.362 | H 0.643 | V 0.342 | F 0.296
chain 5 N4: E 0.367 | M 0.352 | G 0.362 | V 0.332 | H 8.69 | T 0.352 | C 0.49 | D 0.316 | W 0.5 | Q 0.245 | L 0.469 | A 0.301 | F 1.27 | S 0.332 | K 0.592 | Y 1.1 | P 0.255 | R 0.454 | I 0.347
chain 5 I2: R 0.24 | K 0.388 | C 0.74 | S 0.75 | H 0.332 | M 0.684 | A 0.663 | D 0.505 | T 0.526 | Y 0.352 | F 0.653 | P 0.327 | N 0.362 | Q 0.454 | L 0.607 | G 0.505 | W 0.378 | E 0.408 | V 1.03
chain 5 L8: T 0.719 | R 0.485 | H 0.985 | M 0.689 | E 0.49 | N 0.281 | W 0.255 | K 0.837 | A 0.709 | Q 0.842 | D 0.352 | G 0.515 | V 0.531 | C 0.781 | S 0.464 | I 0.786 | F 0.423 | Y 0.755 | P 0.332

Variants of: B4
Experiment: % of reporter cells activated (NFAT-GFP), raw
Settings: with B13; scale: % of reporter cells activated

Ratio to parent, by site and new letter:
chain 5 E6: A 0.0525 | C 0.0215 | D 0.0608 | F 0.0355 | G 0.0583 | H 0.0361 | I 0.0222 | K 0.611 | L 0.0292 | M 0.0342 | N 0.0224 | P 0.101 | Q 0.0298
